Reference: paper PMC8097376 (2021)
Changes are numbered by the printed parent chain.

B1: nanobody NM1222 (VHH)
VHH: EVQLVESGGGLVRPGGSLRLSCVGSGFTFSGYAINWYRQAPGKALELVAGISNAGDLTHYEEAMKGRVAISRANDKNTVYLQMDDLKPEDTAVYRCHAPGVRVGTGERNDVWGQGAQVTVSS
B2: nanobody NM1221 (VHH)
VHH: B1 VHH with E1D, R13Q, R19T, T28L, I34M, L57I, A73V, G104A, T105S, A116T
B3: nanobody NM1227 (VHH)
VHH: EVQLVESGGGLVQPGGSLTLSCETSGRHFDIDDMGWYRQAPGKQRELVACITTESSTTYADAVKGRFTISRDNPDNTVYLQMTNLKPEDTAVYYCNAEMHPRSLDYALGNRDYWGQGAPVTVSS
B4: nanobody NM1229 (VHH)
VHH: EVQLQESGGGLVQPGESLRLSCAASGRTHDWYTMGWFRQAPGKEREFVARINWSSGMTYYADSVKGRFTISRDNPKNTVYLQMNSLTPDDTAVYYCNVHPFTSPDYWGQGTRVTVSS
B5: nanobody NM1225 (VHH)
VHH: QVQLVESGGGLVQPGGSLRLSCAASGNILRVHDMGWYRQAPGKQREYVAMITHGGITNYIDSVKGRFTISRDNAKNTVYLQMNSLKPEDTAVYYCHAVLSSALNGVTETSSNWGQGTQVTVSS
B6: nanobody NM1230 (VHH)
VHH: B1 VHH with E1Q, I34M, A63P, N109K
B7: nanobody NM1228 (VHH)
VHH: DVQLVESGGGLVRPGGSLRLSCESSGRHFDIDTMGWYRQAPGKQRELVASITSEKSTVYADALKGRFTISRDIPDNNVYLQMNNLKPEDTAVYYCNAKMDPHSLDYALGNQVFWGQGSLVTVSS
B8: nanobody NM1226 (VHH)
VHH: QVQLVESGGGSVQPGGSLRLSCLGSGSLDYYAIGWFRQAPGKEREGVSCIASSGDRTIYADSVKGRFTISRDYGKNTVYLQMNSLKPEDTAMYYCAALQGSYYYTGFVANEYDYWGQGAPVTVSS
B9: nanobody NM1224 (VHH)
VHH: DVQLVESGGSLVQPGGSLRLSCETSRSSLDAYAIGWFRQAPGKEREGVASISSSSMRTEYADSVKGRFTISRDNAKNTAYLDMNSLKPEDTAVYYCAAAGEYGRAWPGLDWYEFEYEGPGSPVTVSS
B10: nanobody NM1223 (VHH)
VHH: EVQLVESGGGLVQPGGSLRLSCSASGFAFSSVSMSWVRLLPGKGTEWVAEIDRDGGNGNYEDSVKGRFTISRDNAKNTLFLQMNSLVPEDTALYYCRLGTRDHIMSGWGPGAPVTVSS

Biological target: T1, SARS-CoV-2 spike receptor-binding domain (RBD) (SARS-CoV-2, UniProt P0DTC2 319-541)
Experiment: BLI

B1 and B2 are within 1.5-fold of each other in Kd: 18 nM for the first, 22.7 nM for the second.

Going from B3 to B4, the Kd rises from 3.72 nM to 53.2 nM (14-fold). The first binds more tightly here.

For B5, the Kd was 53700 nM.

Biological target: T1, SARS-CoV-2 spike receptor-binding …
Experiment: BLI
Remark: another data set of the same source

B1 and B2 are within 1.5-fold of each other in koff: 0.00294 s⁻¹ for the first, 0.00296 s⁻¹ for the second.

Compared with B6, B7 is 2.6-fold lower in koff: 0.00166 s⁻¹ for the first, 0.00064 s⁻¹ for the second.

Compared with B8, B9 is 2.3-fold higher in koff: 0.00115 s⁻¹ for the first, 0.00267 s⁻¹ for the second.

Compared with B3, B10 is 2.9-fold lower in koff: 0.00079 s⁻¹ for the first, 0.00027 s⁻¹ for the second.

Going from B4 to B5, the koff rises from 0.00985 s⁻¹ to 0.473 s⁻¹ (48-fold).

Biological target: S1 domain of the SARS-CoV-2 spike protein (SARS-CoV-2, UniProt P0DTC2 14-681)
Experiment: not given

Compared with B1, B2 is 1.6-fold higher in IC50: 27.3 nM for the first, 43.3 nM for the second. The first is the more potent here.

First: B6
Second: B7
The IC50 of the first is 12-fold higher: 10.6 nM for the first, 0.85 nM for the second. The second is the more potent here.

Going from B8 to B3, the IC50 rises from 1.44 nM to 3.51 nM (2.4-fold). The first is the more potent here.

Work on B4 yielded an IC50 of 56.1 nM.

Biological target: T1, SARS-CoV-2 spike receptor-binding …
Experiment: not given

First: B1
Second: B2
The IC50 of the first is 1.7-fold lower: 5.8 nM for the first, 10.1 nM for the second.

First: B9
Second: B3
The IC50 of the first is 22-fold higher: 36.6 nM for the first, 1.65 nM for the second. The second is the more potent here.

For B4, the IC50 was 37.8 nM.
